Measured values published in paper PMC9969416 (Endocrinology, 2023).

Molecular target: the molecule itself
Experiment: crystal structure

B1: ligand-binding domain (LBD) of human RXRα (residues 223-462) (domain or fragment)
chain: TSSANEDMPVERILEAELAVEPKTETYVEANMGLNPSSPNDPVTNICQAADKQLFTLVEWAKRIPHFSELPLDDQVILLRAGWNELLIASFSHRSIAVKDGILLATGLHVHRNSAHSAGVGAIFDRVLTELVSKMRDMQMDKTELGCLRAIVLFNPDSKGLSNPAEVEALREKVYASLEAYCKHKYPEQPGRFAKLLLRLPALRSIGLKCLEHLFFFKLIGDTPIDTFLMEMLEAPHQMT
B1: binds.
